According to patent US7176277 (BURNHAM INSTITUTE, dated 2007):
One block for each binder: values may come before it.

Assays:
GFP-TR3/ΔDBD = target: T1, GFP-TR3/ΔDBD (human, UniProt P22736 1-598); test: Co-IP
T1 construct: also called GFP-ΔDBD
Method: (§1) The cells were harvested and reporter gene activity was measured. […] Cells were suspended in lysis buffer (50 mM Tris-HCl, PH7.4; 150 mM NaCl; 20 mM EDTA; 1% NP-40; 1 mM PMSF; 50 μg/ml Leupeptin; 20 mg/ml Aprotinin; 0.1 mM Na_3VO_4; and 1 mM DTT). Cells extracts were cleared by incubation with the Protein A/G plus Agarose beads (Santa Cruz) and then incubated with appropriate antibody and 30 μl of Protein A or G plus Agarose beads overnight at 4° C. […] Immunoreactive products were detected by chemiluminescence with an enhanced chemiluminescence system (ECL) (Amersham).

Bcl-2 = target: T2, Bcl-2 (UniProt P10415 1-239); test: Co-IP (result restated in Example 8)
T2 construct: The residue numbers used for the mutants (Tyr108, Leu137, Gly145, Arg146, TM 205-239) fit human Bcl-2 alpha; also called full-length Bcl-2; ^35S-labeled Bcl-2
Method: as §1
A Co-IP assay was performed, as described above.

binding result (GFP-TR3/ΔDBD): no binding
B1: Bcl-2/ΔLoop (other, UniProt P10415 1-239, looked up)
chain: MAHAGRTGYDNREIVMKYIHYKLSQRGYEWDAAGPALSPVPPVVHLTLRQAGDDFSRRYRRDFAEMSSQLHLTPFTARGRFATVVEELFRDGVNWGRIVAFFEFGGVMCVESVNREMSPLVDNIALWMTEYLNRHLHTWIQDNGGWDAFVELYGPSMRPLFDFSWLSLKTLLSLALVGACITLGAYLGHK
notes: also called Bcl-2 lacking the loop region

binding result (Bcl-2): no binding
B2: TR3/ΔDBD/ΔDC1 (other, not shown: large carriers; small tags and cut ends)
chain: MPCIQAQYGTPAPSPGPRDHLASDPLTPEFIKPTMDLASPEAAPAAPTALPSFSTFMDGYTGEFDTFLYQLPGTVQPCSSASSSASSTSSSSATSPASASFKFEDFQVYGCYPGPLSGPVDEALSSSGSDYYGSPCSAPSPSTPSFQPPQLSPWDGSFGHFSPSQTYEHVAAVAGEPQPASCLSRLLGKLPELRTLCTQGLQRIFYLKLEDLVPPPPIIDKIFMDTLPF
notes: also called TR3/ΔDBD/DC1; GFP fusion
